Laboratory results published in patent US20160272683A1 (Novo Nordisk, published 2016).
Numbered stars: 1 amine (or outer) side, 2 acyl side, 3 side chain; on linkers, the order of the positions; unused ones are H or OH. Ends that are not written are not given here. * marks the point of attachment. C20 diacid = O=C(O)CCCCCCCCCCCCCCCCCCC(=O)*; γGlu = O=C(O)[C@H](CCC(=O)[*:2])N[*:1]

T1: human amylin receptor (human calcitonin receptor + human RAMP3) (human) (UniProt P30988)
T1 sequence (looked up) 1: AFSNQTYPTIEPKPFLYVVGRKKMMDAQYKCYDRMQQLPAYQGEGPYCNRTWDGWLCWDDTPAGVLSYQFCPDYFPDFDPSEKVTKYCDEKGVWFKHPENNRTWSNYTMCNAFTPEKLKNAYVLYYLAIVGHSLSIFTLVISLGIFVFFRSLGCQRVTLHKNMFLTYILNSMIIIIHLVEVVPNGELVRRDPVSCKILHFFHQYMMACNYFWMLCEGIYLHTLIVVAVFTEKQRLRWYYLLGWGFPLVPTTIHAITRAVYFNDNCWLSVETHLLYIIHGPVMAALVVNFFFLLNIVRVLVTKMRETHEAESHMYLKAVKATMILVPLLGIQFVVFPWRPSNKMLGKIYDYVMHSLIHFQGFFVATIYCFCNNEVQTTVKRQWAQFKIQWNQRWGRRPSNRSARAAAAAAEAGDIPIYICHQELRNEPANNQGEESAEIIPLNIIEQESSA
T1 sequence (looked up) 2: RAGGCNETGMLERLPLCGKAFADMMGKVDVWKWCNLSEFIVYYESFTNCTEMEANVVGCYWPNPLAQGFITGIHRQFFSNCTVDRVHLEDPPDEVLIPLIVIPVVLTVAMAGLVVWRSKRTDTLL

T2: human amylin 3(a) receptor (human calcitonin receptor co-expressed with RAMP-3) on BHK570/CRE-luc cells (human, UniProt P30988 25-474; O60896 24-148)
T2 sequence (looked up) 1: T1 sequence (looked up) 1
T2 sequence (looked up) 2: T1 sequence (looked up) 2

T3: human calcitonin receptor on BHK570/CRE-luc cells (human, UniProt P30988 25-474)
T3 sequence (looked up): T1 sequence (looked up) 1

B1: mimylin (peptide)
peptide: EASELSTAALGRLSAELHELATLPRTETGPESP-NH2
B2: [N-terminal(C20 diacid-gGlu), des1, 4G, 9V, 12K, 15Q, 21Q, 23Y, 25P, 30S, 31G, 32T, 33Y]mimylin (peptide)
peptide: {C20 diacid-γGlu}-ASGLSTAVLGKLSQELHELQTYPPTETGSGTY-NH2
SMILES: CC(C)C[C@H](NC(=O)CNC(=O)[C@H](CO)NC(=O)[C@H](C)NC(=O)CC[C@H](NC(=O)CCCCCCCCCCCCCCCCCCC(=O)O)C(=O)O)C(=O)N[C@@H](CO)C(=O)N[C@H](C(=O)N[C@@H](C)C(=O)N[C@H](C(=O)N[C@@H](CC(C)C)C(=O)NCC(=O)N[C@@H](CCCCN)C(=O)N[C@@H](CC(C)C)C(=O)N[C@@H](CO)C(=O)N[C@@H](CCC(N)=O)C(=O)N[C@@H](CCC(=O)O)C(=O)N[C@@H](CC(C)C)C(=O)N[C@@H](Cc1c[nH]cn1)C(=O)N[C@@H](CCC(=O)O)C(=O)N[C@@H](CC(C)C)C(=O)N[C@@H](CCC(N)=O)C(=O)N[C@H](C(=O)N[C@@H](Cc1ccc(O)cc1)C(=O)N1CCC[C@H]1C(=O)N1CCC[C@H]1C(=O)N[C@H](C(=O)N[C@@H](CCC(=O)O)C(=O)N[C@H](C(=O)NCC(=O)N[C@@H](CO)C(=O)NCC(=O)N[C@H](C(=O)N[C@@H](Cc1ccc(O)cc1)C(N)=O)[C@@H](C)O)[C@@H](C)O)[C@@H](C)O)[C@@H](C)O)C(C)C)[C@@H](C)O
B3: [N-terminal(C20 diacid-gGlu), des1, 2L, 4G, 9V, 15Q, 21Q, 23Y, 30S, 31Q, 32T, 33Y]mimylin (peptide)
peptide: {C20 diacid-γGlu}-LSGLSTAVLGRLSQELHELQTYPRTETGSQTY-NH2
SMILES: CC(C)C[C@H](NC(=O)CC[C@H](NC(=O)CCCCCCCCCCCCCCCCCCC(=O)O)C(=O)O)C(=O)N[C@@H](CO)C(=O)NCC(=O)N[C@@H](CC(C)C)C(=O)N[C@@H](CO)C(=O)N[C@H](C(=O)N[C@@H](C)C(=O)N[C@H](C(=O)N[C@@H](CC(C)C)C(=O)NCC(=O)N[C@@H](CCCNC(=N)N)C(=O)N[C@@H](CC(C)C)C(=O)N[C@@H](CO)C(=O)N[C@@H](CCC(N)=O)C(=O)N[C@@H](CCC(=O)O)C(=O)N[C@@H](CC(C)C)C(=O)N[C@@H](Cc1c[nH]cn1)C(=O)N[C@@H](CCC(=O)O)C(=O)N[C@@H](CC(C)C)C(=O)N[C@@H](CCC(N)=O)C(=O)N[C@H](C(=O)N[C@@H](Cc1ccc(O)cc1)C(=O)N1CCC[C@H]1C(=O)N[C@@H](CCCNC(=N)N)C(=O)N[C@H](C(=O)N[C@@H](CCC(=O)O)C(=O)N[C@H](C(=O)NCC(=O)N[C@@H](CO)C(=O)N[C@@H](CCC(N)=O)C(=O)N[C@H](C(=O)N[C@@H](Cc1ccc(O)cc1)C(N)=O)[C@@H](C)O)[C@@H](C)O)[C@@H](C)O)[C@@H](C)O)C(C)C)[C@@H](C)O
B4: [N-terminal(C20 diacid-gGlu), des1, 4Q, 9V, 15Q, 16R, 19R, 21Q, 23Y, 27Q, 30S, 31Q, 32T, 33Y]mimylin (peptide)
peptide: {C20 diacid-γGlu}-ASQLSTAVLGRLSQRLHRLQTYPRTQTGSQTY-NH2
SMILES: CC(C)C[C@H](NC(=O)[C@H](CCCNC(=N)N)NC(=O)CNC(=O)[C@H](CC(C)C)NC(=O)[C@@H](NC(=O)[C@H](C)NC(=O)[C@@H](NC(=O)[C@H](CO)NC(=O)[C@H](CC(C)C)NC(=O)[C@H](CCC(N)=O)NC(=O)[C@H](CO)NC(=O)[C@H](C)NC(=O)CC[C@H](NC(=O)CCCCCCCCCCCCCCCCCCC(=O)O)C(=O)O)[C@@H](C)O)C(C)C)C(=O)N[C@@H](CO)C(=O)N[C@@H](CCC(N)=O)C(=O)N[C@@H](CCCNC(=N)N)C(=O)N[C@@H](CC(C)C)C(=O)N[C@@H](Cc1c[nH]cn1)C(=O)N[C@@H](CCCNC(=N)N)C(=O)N[C@@H](CC(C)C)C(=O)N[C@@H](CCC(N)=O)C(=O)N[C@H](C(=O)N[C@@H](Cc1ccc(O)cc1)C(=O)N1CCC[C@H]1C(=O)N[C@@H](CCCNC(=N)N)C(=O)N[C@H](C(=O)N[C@@H](CCC(N)=O)C(=O)N[C@H](C(=O)NCC(=O)N[C@@H](CO)C(=O)N[C@@H](CCC(N)=O)C(=O)N[C@H](C(=O)N[C@@H](Cc1ccc(O)cc1)C(N)=O)[C@@H](C)O)[C@@H](C)O)[C@@H](C)O)[C@@H](C)O
B5: [N-terminal(C20 diacid-gGlu), des1, 2L, 4Q, 8L, 9V, 15Q, 16R, 19R, 21Q, 23Y, 27Q, 30S, 31Q, 32T, 33Y]mimylin (peptide)
peptide: {C20 diacid-γGlu}-LSQLSTLVLGRLSQRLHRLQTYPRTQTGSQTY-NH2
SMILES: CC(C)C[C@H](NC(=O)CC[C@H](NC(=O)CCCCCCCCCCCCCCCCCCC(=O)O)C(=O)O)C(=O)N[C@@H](CO)C(=O)N[C@@H](CCC(N)=O)C(=O)N[C@@H](CC(C)C)C(=O)N[C@@H](CO)C(=O)N[C@H](C(=O)N[C@@H](CC(C)C)C(=O)N[C@H](C(=O)N[C@@H](CC(C)C)C(=O)NCC(=O)N[C@@H](CCCNC(=N)N)C(=O)N[C@@H](CC(C)C)C(=O)N[C@@H](CO)C(=O)N[C@@H](CCC(N)=O)C(=O)N[C@@H](CCCNC(=N)N)C(=O)N[C@@H](CC(C)C)C(=O)N[C@@H](Cc1c[nH]cn1)C(=O)N[C@@H](CCCNC(=N)N)C(=O)N[C@@H](CC(C)C)C(=O)N[C@@H](CCC(N)=O)C(=O)N[C@H](C(=O)N[C@@H](Cc1ccc(O)cc1)C(=O)N1CCC[C@H]1C(=O)N[C@@H](CCCNC(=N)N)C(=O)N[C@H](C(=O)N[C@@H](CCC(N)=O)C(=O)N[C@H](C(=O)NCC(=O)N[C@@H](CO)C(=O)N[C@@H](CCC(N)=O)C(=O)N[C@H](C(=O)N[C@@H](Cc1ccc(O)cc1)C(N)=O)[C@@H](C)O)[C@@H](C)O)[C@@H](C)O)[C@@H](C)O)C(C)C)[C@@H](C)O
B6: [N-terminal(C20 diacid-gGlu), des1, 4G, 9T, 15Q, 21Q, 23Y, 25P, 30S, 31G, 32T, 33Y]mimylin (peptide)
peptide: {C20 diacid-γGlu}-ASGLSTATLGRLSQELHELQTYPPTETGSGTY-NH2
SMILES: CC(C)C[C@H](NC(=O)CNC(=O)[C@H](CO)NC(=O)[C@H](C)NC(=O)CC[C@H](NC(=O)CCCCCCCCCCCCCCCCCCC(=O)O)C(=O)O)C(=O)N[C@@H](CO)C(=O)N[C@H](C(=O)N[C@@H](C)C(=O)N[C@H](C(=O)N[C@@H](CC(C)C)C(=O)NCC(=O)N[C@@H](CCCNC(=N)N)C(=O)N[C@@H](CC(C)C)C(=O)N[C@@H](CO)C(=O)N[C@@H](CCC(N)=O)C(=O)N[C@@H](CCC(=O)O)C(=O)N[C@@H](CC(C)C)C(=O)N[C@@H](Cc1c[nH]cn1)C(=O)N[C@@H](CCC(=O)O)C(=O)N[C@@H](CC(C)C)C(=O)N[C@@H](CCC(N)=O)C(=O)N[C@H](C(=O)N[C@@H](Cc1ccc(O)cc1)C(=O)N1CCC[C@H]1C(=O)N1CCC[C@H]1C(=O)N[C@H](C(=O)N[C@@H](CCC(=O)O)C(=O)N[C@H](C(=O)NCC(=O)N[C@@H](CO)C(=O)NCC(=O)N[C@H](C(=O)N[C@@H](Cc1ccc(O)cc1)C(N)=O)[C@@H](C)O)[C@@H](C)O)[C@@H](C)O)[C@@H](C)O)[C@@H](C)O)[C@@H](C)O
B7: [N-terminal(C20 diacid-gGlu), des1, 4G, 9V, 15Q, 21Q, 23aQ, 23bT, 23cY, 30S, 31Q, 32T, 33Y]mimylin (peptide)
peptide: {C20 diacid-γGlu}-ASGLSTAVLGRLSQELHELQTLQTYPRTETGSQTY-NH2
SMILES: CC(C)C[C@H](NC(=O)CNC(=O)[C@H](CO)NC(=O)[C@H](C)NC(=O)CC[C@H](NC(=O)CCCCCCCCCCCCCCCCCCC(=O)O)C(=O)O)C(=O)N[C@@H](CO)C(=O)N[C@H](C(=O)N[C@@H](C)C(=O)N[C@H](C(=O)N[C@@H](CC(C)C)C(=O)NCC(=O)N[C@@H](CCCNC(=N)N)C(=O)N[C@@H](CC(C)C)C(=O)N[C@@H](CO)C(=O)N[C@@H](CCC(N)=O)C(=O)N[C@@H](CCC(=O)O)C(=O)N[C@@H](CC(C)C)C(=O)N[C@@H](Cc1c[nH]cn1)C(=O)N[C@@H](CCC(=O)O)C(=O)N[C@@H](CC(C)C)C(=O)N[C@@H](CCC(N)=O)C(=O)N[C@H](C(=O)N[C@@H](CC(C)C)C(=O)N[C@@H](CCC(N)=O)C(=O)N[C@H](C(=O)N[C@@H](Cc1ccc(O)cc1)C(=O)N1CCC[C@H]1C(=O)N[C@@H](CCCNC(=N)N)C(=O)N[C@H](C(=O)N[C@@H](CCC(=O)O)C(=O)N[C@H](C(=O)NCC(=O)N[C@@H](CO)C(=O)N[C@@H](CCC(N)=O)C(=O)N[C@H](C(=O)N[C@@H](Cc1ccc(O)cc1)C(N)=O)[C@@H](C)O)[C@@H](C)O)[C@@H](C)O)[C@@H](C)O)[C@@H](C)O)C(C)C)[C@@H](C)O
B8: [N-terminal(C20 diacid-gGlu), 2L, 4G, 8L, 9V, 15Q, 21Q, 23Y, 27G, 30S, 31G, 32T, 33Y]mimylin (peptide)
peptide: {C20 diacid-γGlu}-ELSGLSTLVLGRLSQELHELQTYPRTGTGSGTY-NH2
SMILES: CC(C)C[C@H](NC(=O)CNC(=O)[C@H](CO)NC(=O)[C@H](CC(C)C)NC(=O)[C@H](CCC(=O)O)NC(=O)CC[C@H](NC(=O)CCCCCCCCCCCCCCCCCCC(=O)O)C(=O)O)C(=O)N[C@@H](CO)C(=O)N[C@H](C(=O)N[C@@H](CC(C)C)C(=O)N[C@H](C(=O)N[C@@H](CC(C)C)C(=O)NCC(=O)N[C@@H](CCCNC(=N)N)C(=O)N[C@@H](CC(C)C)C(=O)N[C@@H](CO)C(=O)N[C@@H](CCC(N)=O)C(=O)N[C@@H](CCC(=O)O)C(=O)N[C@@H](CC(C)C)C(=O)N[C@@H](Cc1c[nH]cn1)C(=O)N[C@@H](CCC(=O)O)C(=O)N[C@@H](CC(C)C)C(=O)N[C@@H](CCC(N)=O)C(=O)N[C@H](C(=O)N[C@@H](Cc1ccc(O)cc1)C(=O)N1CCC[C@H]1C(=O)N[C@@H](CCCNC(=N)N)C(=O)N[C@H](C(=O)NCC(=O)N[C@H](C(=O)NCC(=O)N[C@@H](CO)C(=O)NCC(=O)N[C@H](C(=O)N[C@@H](Cc1ccc(O)cc1)C(N)=O)[C@@H](C)O)[C@@H](C)O)[C@@H](C)O)[C@@H](C)O)C(C)C)[C@@H](C)O

Each binder was assayed against T1, human amylin receptor (human calcitonin receptor + human RAMP3) (human) (assay: whole-cell competition vs 125I-rat amylin (Assay Va)).

B1 showed an IC50 of 0.511 nM.

These binders were tested against T2, human amylin 3(a) receptor (human …) (assay: cell-based or functional assay).

In order of rising “hAmylin-R funct. EC50 (pM), tested with HSA” value:
1. B4  37 pM
2. B5  44 pM
3. B3  140 pM
4. B2  154 pM
5. B6  173 pM
6. B7  185 pM
7. B8  565 pM

These binders were tested against T3, human calcitonin receptor on … (assay: cell-based or functional assay).

In order of falling “hCTR funct. EC50 (pM), tested with HSA” value:
1. B8  852 pM
2. B7  99 pM
3. B6  77 pM
4. B3  73 pM
5. B2  62 pM
6. B4  50 pM
7. B5  50 pM
